Sequences and labels used below:
B1: Twister Ribozyme (parent)
chain: AACACUGCCAAUGCCGGUCCCAAGCCCGGAUAAAAGUGGAGGGGGCGG

The variants in this data set derive from B1. As to the kind of experiment: self-cleavage, relative activity (ratio to wild type); higher = more cleavage; co-transcriptional.
As for AACACUGCUAAUGCCUGUCCCAAGCCCGGAUAAAAGUGGAGGGGGCGG [C9U G16U], the self-cleavage amounted to 0.373.
As to AACACUGCCAAUGCCGGUCCCAAGCCCGGAUAAAAGGGGAGGGGGGGG [U37G C46G], the self-cleavage is 0.79.
Then AACACUGCCAAUGGCGGUCCCAAGCCCGGAUAAAAGUGAAGGGGGCGG [C14G G39A], with 0.0534; and AACACUGCCAAUGCCGGUCCUAAGCCCGGAUAAAAGUGGAGGGGGCGA [C21U G48A], with 0.131.
The result for AACACUGCCAAUGCCGGUCACAAGCCCGGAUUAAAGUGGAGGGGGCGG [C20A A32U] reads 0.186; that for AACACUGCCAAUGCCGGUCCCAAGCCCUGAUGAAAGUGGAGGGGGCGG [G28U A32G], 0.777; that for AAUACUGCCAAUGCCCGUCCCAAGCCCGGAUAAAAGUGGAGGGGGCGG [C3U G16C], 0.163.
With AACACUGCCAAUGCCGGUCCCAAGCCCGGAUAAAAGUGGAAGGGGCAG [G41A G47A], the self-cleavage was found to be 0.278.
The result for AACACUGCCAGUGCCGGUCCCAAGCCGGGAUAAAAGUGGAGGGGGCGG [A11G C27G] reads 0.0637; that for AACACUGCCAAUGCCGGUCCCAAGCCCGAAUAAAAGUGGGGGGGGCGG [G29A A40G], 0.146.
With AACACUGCCAAUGCCGGACCCAAGCCCGGAUGAAAGUGGAGGGGGCGG [U18A A32G], the self-cleavage was 0.407.
The result for AACGCUGCCAAUGCCGGUGCCAAGCCCGGAUAAAAGUGGAGGGGGCGG [A4G C19G] reads 0.166; that for AACACUGACAAUGCCGGUCACAAGCCCGGAUAAAAGUGGAGGGGGCGG [C8A C20A], 0.0847.
Regarding AACACUGCCAAUGCCGGUCCCAAGCCCGGAUAAAAGUGGAUGAGGCGG [G41U G43A], the self-cleavage amounted to 0.163.
Then AACACGGCCAGUGCCGGUCCCAAGCCCGGAUAAAAGUGGAGGGGGCGG [U6G A11G], with 0.52.
Regarding AACACUGGCAAUGCCGGUCCCAAGCCCGGAUAAAGGUGGAGGGGGCGG [C8G A35G], the self-cleavage came to 0.222.
Turning to AACUCUGCCAAUGCCGGUCCCAAGCCCGGAUGAAAGUGGAGGGGGCGG [A4U A32G], the self-cleavage turned out to be 0.0833.
The result for AACACUGCCAAUGCCGGUCCCAAGCCCGGCUAAAAGUGGAAGGGGCGG [A30C G41A] reads 0.133.
Then AACACUGCCAAUGCCGGUCCCAAGCCCGGAUAAAAGCGGUGGGGGCGG [U37C A40U], with 0.0912.
The result for AACACUGCCAAUGCCGGUCCCAAGCGCGGAUAAAAGUGGAGGGAGCGG [C26G G44A] reads 0.515; that for AACACUGCCAAUGCCGGUCCCAACCCCGGAUCAAAGUGGAGGGGGCGG [G24C A32C], 0.118; that for AACACUGCCAAUGCCGGCCCCAAGCCCGGAUAAAAGUGGAGGGGGCGU [U18C G48U], 0.496.
AACACUGCCAAUGCCGGUCCCAAGCCUGGAUAAACGUGGAGGGGGCGG [C27U A35C]: the self-cleavage came out at 0.641.
Then AACACUGCCAAUGCCGGUCCCAAGCCCGGAUAUAAGUGGGGGGGGCGG [A33U A40G], with 0.154; and AACACUGCCAAUGCCGCUCCCAAGCCCGGAUGAAAGUGGAGGGGGCGG [G17C A32G], with 0.129.
The result for AACACUGCCAAUGCCGGUCCCAAGGCCGGAUAAAAGUGGUGGGGGCGG [C25G A40U] reads 0.103.
Then AACACUGCCAAUGCCGCUCCGAAGCCCGGAUAAAAGUGGAGGGGGCGG [G17C C21G], with 0.0972; and AACACUGCCAAUGCCGGUCCGAAGCGCGGAUAAAAGUGGAGGGGGCGG [C21G C26G], with 0.0411.
Regarding AACACUGCCAAUGCCGUUCCCAAGCCCGGAUAAAAGUGGUGGGGGCGG [G17U A40U], the self-cleavage is 0.145.
The result for AACACUGCCAAUGCCGGUCCCAAGCCCGGAUAAAAGUGCAGGGGGCAG [G39C G47A] reads 0.152; that for AACACUGCCAAUGCCGGUCCAAAGCCCGGAUAAAAGUGGCGGGGGCGG [C21A A40C], 0.0907; that for AACACUGCCUAUGCCGGUCCCAAGCACGGAUAAAAGUGGAGGGGGCGG [A10U C26A], 0.607.
The result for AACACUGCCAAUGCCGGUCCCAAGCCCAGAUUAAAGUGGAGGGGGCGG [G28A A32U] reads 0.817; that for AACACUGCCAAUGCCGGUCCCAAUCCCGGAGAAAAGUGGAGGGGGCGG [G24U U31G], 0.13; that for AACACUGCCAAUGCCGGUCCCUAGCCCGGAUAACAGUGGAGGGGGCGG [A22U A34C], 0.0816.
Then AACACUGUCAAUGCCGGUCCCAAGCCCGGAUAAGAGUGGAGGGGGCGG [C8U A34G], with 0.582.
AACAUUGCCAAUGCCGGUCCCAAGCCCGGAUAAAAGUGGCGGGGGCGG [C5U A40C]: the self-cleavage was 0.171.
The result for AACACUGCAAAUGCCGGUCCCAAGCCCGGAUAAAAGUGGUGGGGGCGG [C9A A40U] reads 0.119.
As to AACUCUGCCAAUUCCGGUCCCAAGCCCGGAUAAAAGUGGAGGGGGCGG [A4U G13U], the self-cleavage was 0.0584.
As to AACACUGCCAAUGCCGGGCCCAAGCCCGGAGAAAAGUGGAGGGGGCGG [U18G U31G], the self-cleavage worked out at 0.102.
Then AACACUGCCAAUGCCGGUCCCAAGCCCGGAUAAAUGUGGGGGGGGCGG [A35U A40G], with 0.133; and AACACGGCCAAUGCCGGUCCCAACCCCGGAUAAAAGUGGAGGGGGCGG [U6G G24C], with 0.356; and AACAUUGCCAAUGCCGAUCCCAAGCCCGGAUAAAAGUGGAGGGGGCGG [C5U G17A], with 0.237.
The result for AACACUACCAAUGCCGGUCCCAAGCCCGGAUUAAAGUGGAGGGGGCGG [G7A A32U] reads 0.507; that for AAGACUGCCAAUGCCGGUCCCAAGCCCGGAUAAAAGUUGAGGGGGCGG [C3G G38U], 0.607; that for AACACUUCCAAUGCCCGUCCCAAGCCCGGAUAAAAGUGGAGGGGGCGG [G7U G16C], 0.0533.
The result for AACACAGCCCAUGCCGGUCCCAAGCCCGGAUAAAAGUGGAGGGGGCGG [U6A A10C] reads 1.19.
With AACAGUGCCAAUGCCGGUCCAAAGCCCGGAUAAAAGUGGAGGGGGCGG [C5G C21A], the self-cleavage turned out to be 0.0944.
Then AACACUGCCAAUGCCGGUCCCAAGCCCGGAUAAUAGUGGAGGGGACGG [A34U G45A], with 0.815.
Then AACACGGCCAAUGCCGGUCCCAAGCCCGGAUAAAAGUGGAGAGGGCGG [U6G G42A], with 0.0807; and AACACUGCCAAUGCCGUUCGCAAGCCCGGAUAAAAGUGGAGGGGGCGG [G17U C20G], with 0.105; and GACACUGCCAAUGCCGGUCCCAAGCCCGGAUAAAAGUGGAUGGGGCGG [A1G G41U], with 0.228.
Then AACACUGCCAACGCCGGUCCCAAGCCCGGAUAAAAGUGGACGGGGCGG [U12C G41C], with 0.264; and AACACUGCCAAUGCCGGUGCCAAGCCCGGAUAAAAGUGGAGGGUGCGG [C19G G44U], with 0.29.

The record behind these values is the RNAGym collection of RNA variant scans (doi:10.7554/elife.80360).
